# Data taken from the supplement of paper PMC10567573.
# B1: MTMR15 (parent)
# chain: YVKAKKSIDKDEEFAGSSPQSSKS
# Variants of: B1
# Experiment: protein stability index of a GFP-peptide fusion (GPS, HEK-293T) (PSI 1-6); higher = more stable
# Conditions: c terminus: a fixed tail appended
# 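Further: lentivirally expressed fusions sorted by FACS into six bins by GFP to DsRed ratio, PSI derived from sequencing read proportions per bin multiplied by bin number.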
row,Variant,protein stability index
1,YVKAKKSIDKDEEMAGSSPQSSKS [F14M],3.12
2,YVKAKKSIDKDEERAGSSPQSSKS [F14R],3.25
3,YVKAKKSIDKDEETAGSSPQSSKS [F14T],3.55
4,YVKAKKSIDKDEEGAGSSPQSSKS [F14G],3.35
5,YVKAKKSIDKDEEHAGSSPQSSKS [F14H],3.47
6,YVKAKKSIDKDEEDAGSSPQSSKS [F14D],3.45
7,YVKAKKSIDKDEENAGSSPQSSKS [F14N],3.49
8,YVKAKKSIDKDEEEAGSSPQSSKS [F14E],3.94
9,YVKAKKSIDKDEEPAGSSPQSSKS [F14P],3.74
10,YVKAKKSIDKDEEYAGSSPQSSKS [F14Y],3.5
11,YVKAKKSIDKDEECAGSSPQSSKS [F14C],3.43
12,YVKAKKSIDKDEELAGSSPQSSKS [F14L],3.27
13,YVKAKKSIDKDEEWAGSSPQSSKS [F14W],2.67
14,YVKAKKSIDKDEEKAGSSPQSSKS [F14K],3.29
15,YVKAKKSIDKDEEVAGSSPQSSKS [F14V],3.61
16,YVKAKKSIDKDEEIAGSSPQSSKS [F14I],3.59
17,YVKAKKSIDKDEEQAGSSPQSSKS [F14Q],2.89
18,YVKAKKSIDKDEEAAGSSPQSSKS [F14A],3.25
19,YVKAKKSIDKDEESAGSSPQSSKS [F14S],3.46
20,YVKAKKSIDKDEEFAGSSAQSSKS [P19A],3.19
21,YVKAKKSIDKDEEFAGSSRQSSKS [P19R],2.45
22,YVKAKKSIDKDEEFAGSSCQSSKS [P19C],3.23
23,YVKAKKSIDKDEEFAGSSWQSSKS [P19W],2.42
24,YVKAKKSIDKDEEFAGSSLQSSKS [P19L],2.54

row,Variant,protein stability index
1,YVKAKKSIDKDEEFAGSSQQSSKS [P19Q],3.18
2,YVKAKKSIDKDEEFAGSSEQSSKS [P19E],2.94
3,YVKAKKSIDKDEEFAGSSDQSSKS [P19D],3.37
4,YVKAKKSIDKDEEFAGSSFQSSKS [P19F],2.71
5,YVKAKKSIDKDEEFAGSSMQSSKS [P19M],3.42
6,YVKAKKSIDKDEEFAGSSNQSSKS [P19N],3.09
7,YVKAKKSIDKDEEFAGSSYQSSKS [P19Y],3.02
8,YVKAKKSIDKDEEFAGSSIQSSKS [P19I],2.92
9,YVKAKKSIDKDEEFAGSSGQSSKS [P19G],3.43
10,YVKAKKSIDKDEEFAGSSHQSSKS [P19H],3.25
11,YVKAKKSIDKDEEFAGSSKQSSKS [P19K],2.63
12,YVKAKKSIDKDEEFAGSSVQSSKS [P19V],2.21
13,YVKAKKSIDKDEEFAGSSSQSSKS [P19S],3.42
14,YVKAKKSIDKDEEFAGSSTQSSKS [P19T],3.5
15,YVKAKKSIDKDEEFAGSSPQESKS [S21E],3.3
16,YVKAKKSIDKDEEFAGSSPQHSKS [S21H],3.24
17,YVKAKKSIDKDEEFAGSSPQISKS [S21I],2.67
18,YVKAKKSIDKDEEFAGSSPQFSKS [S21F],3.03
19,YVKAKKSIDKDEEFAGSSPQASKS [S21A],3.23
20,YVKAKKSIDKDEEFAGSSPQCSKS [S21C],3.01
21,YVKAKKSIDKDEEFAGSSPQGSKS [S21G],2.61
22,YVKAKKSIDKDEEFAGSSPQDSKS [S21D],3.31
23,YVKAKKSIDKDHEFAGSSPQSSKS [E12H],2.71
24,YVKAKKSIDKDAEFAGSSPQSSKS [E12A],2.94

row,Variant,protein stability index
1,YVKAKKSIDKDKEFAGSSPQSSKS [E12K],2.7
2,YVKAKKSIDKDGEFAGSSPQSSKS [E12G],2.8
3,YVKAKKSIDKDVEFAGSSPQSSKS [E12V],2.3
4,YVKAKKSIDKDFEFAGSSPQSSKS [E12F],2.37
5,YVKAKKSIDKDTEFAGSSPQSSKS [E12T],3.21
6,YVKAKKSIDKDWEFAGSSPQSSKS [E12W],2.27
7,YVKAKKSIDKDPEFAGSSPQSSKS [E12P],2.68
8,YVKAKKSIDKDREFAGSSPQSSKS [E12R],2.6
9,YVKAKKSIDKDMEFAGSSPQSSKS [E12M],2.93
10,YVKAKKSIDKDSEFAGSSPQSSKS [E12S],2.92
11,YVKAKKSIDKDLEFAGSSPQSSKS [E12L],2.78
12,YVKAKKSIDKDIEFAGSSPQSSKS [E12I],2.41
13,YVKAKKSIDKDDEFAGSSPQSSKS [E12D],2.69
14,YVKAKKSIDKDCEFAGSSPQSSKS [E12C],2.59
15,YVKAKKSIDKDYEFAGSSPQSSKS [E12Y],1.93
16,YVKAKKSIDKDQEFAGSSPQSSKS [E12Q],2.98
17,YVKAKKSIDKDNEFAGSSPQSSKS [E12N],2.64
18,YVKAKKSIDKDEEFIGSSPQSSKS [A15I],3.25
19,YVKAKKSIDKDEEFMGSSPQSSKS [A15M],2.44
20,YVKAKKSIDKDEEFLGSSPQSSKS [A15L],3.05
21,YVKAKKSIDKDEEFFGSSPQSSKS [A15F],1.91
22,YVKAKKSIDKDEEFGGSSPQSSKS [A15G],3.45
23,YVKAKKSIDKDEEFEGSSPQSSKS [A15E],3.31
24,YVKAKKSIDKDEEFNGSSPQSSKS [A15N],2.67

row,Variant,protein stability index
1,YVKAKKSIDKDEEFPGSSPQSSKS [A15P],3.06
2,YVKAKKSIDKDEEFHGSSPQSSKS [A15H],3.38
3,YVKAKKSIDKDEEFVGSSPQSSKS [A15V],3.42
4,YVKAKKSIDKDEEFKGSSPQSSKS [A15K],2.9
5,YVKAKKSIDKDEEFYGSSPQSSKS [A15Y],2.14
6,YVKAKKSIDKDEEFDGSSPQSSKS [A15D],3.63
7,YVKAKKSIDKDEEFQGSSPQSSKS [A15Q],3.16
8,YVKAKKSIDKDEEFCGSSPQSSKS [A15C],2.64
9,YVKAKKSIDKDEEFTGSSPQSSKS [A15T],3.08
10,YVKAKKSIDKDEEFRGSSPQSSKS [A15R],2.87
11,YVKAKKSIDKDEEFSGSSPQSSKS [A15S],2.92
12,YVKAKKSIDKDEYFAGSSPQSSKS [E13Y],2.71
13,YVKAKKSIDKDEQFAGSSPQSSKS [E13Q],3.07
14,YVKAKKSIDKDERFAGSSPQSSKS [E13R],2.77
15,YVKAKKSIDKDEGFAGSSPQSSKS [E13G],2.82
16,YVKAKKSIDKDEMFAGSSPQSSKS [E13M],2.39
17,YVKAKKSIDKDESFAGSSPQSSKS [E13S],2.78
18,YVKAKKSIDKDEIFAGSSPQSSKS [E13I],2.05
19,YVKAKKSIDKDEVFAGSSPQSSKS [E13V],2.31
20,YVKAKKSIDKDENFAGSSPQSSKS [E13N],2.43
21,YVKAKKSIDKDEKFAGSSPQSSKS [E13K],2.56
22,YVKAKKSIDKDELFAGSSPQSSKS [E13L],2.74
